# Measured values taken from paper PMC6778850, “The flavin mononucleotide cofactor in α-hydroxyacid oxidases exerts its electrophilic/nucleophilic duality in control of the substrate-oxidation level” (Acta Crystallographica. Section D, Structural Biology, 2019).
# Target: the molecule itself
# Experiment: SEC; analytical gel filtration on a Superdex 200 16/20 column; 5-deaza-FMN-reconstituted protein after the refolding process; self-association (tetramer)
row,Protein,stoichiometry N
1,"p-hydroxymandelate oxidase (Hmo), 5-deaza-FMN-containing (enzyme, Amycolatopsis orientalis, p-hydroxymandelate oxidase (Hmo), product of the hmo gene (orf22) amplified from Amycolatopsis orientalis genomic DNA, cloned in pET-28a(+); no removal of the His6 tag is described; also called 5-deaza-Hmo; wild-type Hmo; source: E. coli BL21(DE3), purified (Ni-NTA, gel filtration); deflavinated and reconstituted with 5-deaza-FMN on an Ni-NTA column) MTYVSLADLERAARDVLPGEIFDFLAGGSGTEASLVANRTALERVFVIPRMLRDLTDVTTEIDIFGRRAALPMAVAPVAYQRLFHPEGELAVARAARDAGVPYTICTLSSVSLEEIAAVGGRPWFQLYWLRDEKRSLDLVRRAEDAGCEAIVFTVDVPWMGRRLRDMRNGFALPEWVTAANFDAGTAAHRRTQGVSAVADHTAREFAPATWESVEAVRAHTDLPVVLKGILAVEDARRAVDAGAGGIVVSNHGGRQLDGAVPGIEMLGEIVAAVSGGCEVLVDGGIRSGGDVLKATALGASAVLVGRPVMWALAAAGQDGVRQLLELLAEEVRDAMGLAGCESVGAARRLNTKLGVV",4
2,"p-hydroxymandelate oxidase (Hmo) Y128F mutant, 5-deaza-FMN-containing (enzyme, Amycolatopsis orientalis, p-hydroxymandelate oxidase (Hmo), product of the hmo gene (orf22) of Amycolatopsis orientalis, point mutant Y128F made with QuikChange; no removal of the His6 tag is described; source: E. coli BL21(DE3), purified (same protocol as wild-type Hmo); deflavinated and reconstituted with 5-deaza-FMN on an Ni-NTA column) MTYVSLADLERAARDVLPGEIFDFLAGGSGTEASLVANRTALERVFVIPRMLRDLTDVTTEIDIFGRRAALPMAVAPVAYQRLFHPEGELAVARAARDAGVPYTICTLSSVSLEEIAAVGGRPWFQLFWLRDEKRSLDLVRRAEDAGCEAIVFTVDVPWMGRRLRDMRNGFALPEWVTAANFDAGTAAHRRTQGVSAVADHTAREFAPATWESVEAVRAHTDLPVVLKGILAVEDARRAVDAGAGGIVVSNHGGRQLDGAVPGIEMLGEIVAAVSGGCEVLVDGGIRSGGDVLKATALGASAVLVGRPVMWALAAAGQDGVRQLLELLAEEVRDAMGLAGCESVGAARRLNTKLGVV",4
